# Values joined by “and” are separate entries in the source; they are usually repeats but may differ in a detail not shown here. Equal entries are not always repeated. Where no end group is shown, it is not given here.
# Target: human mpl receptor (human) (UniProt P40238)
# Assay: cell-based or functional assay
row,Binder,Pb EC50
1,"WMMEGPTLRHWLAARARY (Fc fusion, not shown: a dimerising Fc or GST, also: Fc fusion, side and linker not given here) [SEQ ID NO: 115 (TPO-mimetic fusion protein of Table 13)]",1.43 ng/mL and 1.81 ng/mL
2,"DAIEGPTLRLWLEARRKQ (Fc fusion, not shown: a dimerising Fc or GST, also: Fc fusion, side and linker not given here) [SEQ ID NO: 139 (TPO-mimetic fusion protein of Table 13)]",1.89 ng/mL
3,"CSSGGPTLREWQQCSRAQ (Fc fusion, part only; not given: Fc and insertion site, part only, cysteine pairing not given here; also: peptide inserted in a loop of an Fc) [Fc-Loop-(SEQ ID NO: 454)]",0.28 ng/mL
4,"WVMEGPTLRHWLAARASL (Fc fusion, not shown: a dimerising Fc or GST, also: Fc fusion, side and linker not given here) [SEQ ID NO: 123 (TPO-mimetic fusion protein of Table 13)]",2.08 ng/mL
5,"YMMEGPTLRHWLATRAGR (Fc fusion, not shown: a dimerising Fc or GST, also: Fc fusion, side and linker not given here) [SEQ ID NO: 103 (TPO-mimetic fusion protein of Table 13)]",0.79 ng/mL
6,"ICTEGCTLRLWLAERSRV (Fc fusion, not shown: a dimerising Fc or GST, cysteine pairing not given here; also: Fc fused at N- or C-terminus, side and linker not given here) [SEQ ID NO: 241 (TPO-mimetic fusion protein of Table 13)]",1.83 ng/mL
7,"AWMEGPTLRHWLAARAAY (Fc fusion, not shown: a dimerising Fc or GST, also: Fc fusion, side and linker not given here) [SEQ ID NO: 149 (TPO-mimetic fusion protein of Table 13)]",1.84 ng/mL
8,"CSSGGPTLREWQQCGRAQ (Fc fusion, part only; not given: Fc and insertion site, part only, cysteine pairing not given here; also: peptide inserted in a loop of an Fc) [Fc-Loop-(SEQ ID NO: 456)]",2.31 ng/mL
9,"WPMEGPTLRHWLAARAAR (Fc fusion, not shown: a dimerising Fc or GST, also: Fc fusion, side and linker not given here) [SEQ ID NO: 171 (TPO-mimetic fusion protein of Table 13)]",1.56 ng/mL
10,"SAIEGPTLRHWLAWRAML (Fc fusion, not shown: a dimerising Fc or GST, also: Fc fusion, side and linker not given here) [SEQ ID NO: 117 (TPO-mimetic fusion protein of Table 13)]",1.09 ng/mL
11,"CSSGGPTLREWQQCQRAQ (Fc fusion, part only; not given: Fc and insertion site, part only, cysteine pairing not given here; also: peptide inserted in a loop of an Fc) [Fc-Loop-(SEQ ID NO: 455)]",0.27 ng/mL
12,"YYLEGPTLRHWLAARAYL (Fc fusion, not shown: a dimerising Fc or GST, also: Fc fusion, side and linker not given here) [SEQ ID NO: 128 (TPO-mimetic fusion protein of Table 13)]",1.82 ng/mL
13,"QGCSSGGPTLREWQQCRRMQHS (Fc fusion, not shown: a dimerising Fc or GST, cysteine pairing not given here; also: fused to an Fc molecule, side and linker not given here) [SEQ ID NO: 9 (TPO-mimetic fusion protein of Table 13)]",0.44 ng/mL
14,"QGCSWGGPTLKNWLQCVRAKHS (Fc fusion, not shown: a dimerising Fc or GST, cysteine pairing not given here; also: fused to an Fc molecule, side and linker not given here) [SEQ ID NO: 11 (TPO-mimetic fusion protein of Table 13)]",4.01 ng/mL
15,"LTMEGPTLRHWLAARATR (Fc fusion, not shown: a dimerising Fc or GST, also: Fc fusion, side and linker not given here) [SEQ ID NO: 225 (TPO-mimetic fusion protein of Table 13)]",3.1 ng/mL
16,"HPIEGPTLRLWLAARARA (Fc fusion, not shown: a dimerising Fc or GST, also: Fc fusion, side and linker not given here) [SEQ ID NO: 163 (TPO-mimetic fusion protein of Table 13)]",2.8 ng/mL
